Data as given in the supplement of paper PMC10567573.

B1: KCNA3 (parent)
chain: YQSGGRIRRPVNVPIDIFSEEIRF

Variants of: B1
Assay: protein stability index of a GFP-peptide fusion (GPS, HEK-293T) (PSI 1-6); higher = more stable
Conditions: c terminus: a fixed tail appended
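Note: lentivirally expressed fusions sorted by FACS into six bins by GFP to DsRed ratio, PSI derived from sequencing read proportions per bin multiplied by bin number.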

Protein stability index: each site, then its substitutions
P10: Q 1.53, T 2.83, R 1.64, K 1.33, F 1.39, D 1.87, N 1.64
Q2: F 1.79, Y 2.46, I 1.22, A 2.35, V 1.94, S 1.96
I22: S 2.29, Q 2.86, H 2.71, R 2.68, V 3.48, K 2.31
I15: T 2.37, W 1.92, Y 1.63, L 1.83, A 3.48, N 2.36
E21: T 1.95, A 2.27, H 2, K 1.84, D 1.56, L 2.09
S3: L 2.23, H 2.84, R 2.59, K 2.24, W 2.27, P 2.22, T 2.06, N 2.23, A 2.82
F24: M 2.52, S 2.4, D 2.1, R 2.38, A 2.53
R9: M 1.61, N 2.12, L 2.05, Y 1.72, H 3.44, A 2.45
N12: L 1.4, S 2.63, I 1.93, M 2.26, F 1.35, E 1.8
R23: T 1.62, M 1.67, P 1.97
F18: Y 2.2, V 2.41, G 2.49, R 2.11, S 2.8, E 3.23, N 3.17, Q 1.81, D 2.3, I 1.49
G5: A 2.38, D 2.02, S 2.37
V13: D 2.14, F 1.86, K 2.36, I 2.43, H 2.19, P 1.86, G 2.31, R 2.01
R6: C 1.85, G 1.85, Y 1.86, I 1.9, W 1.86, Q 2.79, T 1.76
D16: Y 1.39, K 1.8, A 3.22, G 1.73, P 2.34, I 2.51, M 1.73, H 1.84, N 2.01, T 2.51, Q 2.61, R 1.64, S 2.42
R8: C 2.03, F 2.03, Q 1.67, P 2.02, E 2.3, D 2.13, M 2.03, L 1.26, S 1.44, N 2.2, V 1.77
V11: E 3.13, H 1.66, M 2.01, F 2.02, K 1.85
P14: K 1.78, H 2.02, S 1.42, L 2.85, M 3.25, I 2.88, F 1.07, V 1.61
G4: P 2.21, Q 2.37, K 2.82, R 2.15, M 2.1, C 1.93
I17: H 1.91, S 2.33, L 1.86, N 2.74, Y 2.79, E 3.04, G 2.19, V 2.48, M 2.21, R 2.48
S19: Y 2.4, K 1.54, C 1.39
E20: T 1.53, R 1.61, Q 1.68, H 2.04, D 2.26, F 2.93, K 2.29, S 1.82, Y 2.34, P 2.11, C 2.19
Y1: I 2.53, K 2.77, G 2.83, W 2.48, R 2.67, P 3.43, N 2.89, D 3.1, Q 2.76
I7: C 2.38, V 2.4, F 1.62
